Experimental data: patent US20260250381A1
Residue numbers refer to the chain shown, from its start.

T1: human TREM2 (human) (UniProt Q9NZC2)
T1 sequence (looked up): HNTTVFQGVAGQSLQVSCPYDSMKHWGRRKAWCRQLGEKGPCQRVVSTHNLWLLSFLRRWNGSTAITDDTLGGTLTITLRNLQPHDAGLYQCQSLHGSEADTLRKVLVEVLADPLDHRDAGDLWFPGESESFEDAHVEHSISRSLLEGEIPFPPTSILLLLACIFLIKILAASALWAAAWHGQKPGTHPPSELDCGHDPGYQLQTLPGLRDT

B1: 6E7 variant V26 (antibody, V domains shown)
VH: EVQLVQSGAEVKKPGESLKISCKGSGYSFTSYWIGWVRQMPGKGLEWMGTIYPGDSDTRYSPSFQGQVTISADKSISTAYLQWSSLKASDTAMYFCARQRTMYYDSSDYFDAWGQGTLVTVSS
VL: DIQMTQSPSSVSASVGDRVTITCRASQGISSWLAWYQQKPGKAPKLLIYAASSLQRGVPSRFSGSGSGTDFTLTISSLQPEDFATYFCQQADSYPRTFGQGTKLEIK
B2: 6E7 variant V27 (antibody, V domains shown)
VH: B1 VH with G35A, T50I, S61A, A97V, Q99S, M102F, A112Y
VL: B1 VL with Y94F
B3: 6E7 variant V28 (antibody, V domains shown)
VH: B1 VH with T30Q, G35A, M102F, Y103F, A112Y
VL: B1 VL with R56S, Y94L
B4: 6E7 variant V29 (antibody, V domains shown)
VH: B1 VH with T30K, G35A, T50I, M102F, A112Y
VL: B1 VL with R56N, Y94F

The binders below were run against T1, human TREM2 (human) (assay: 1st screen, 10 nM Ab).

Question: Which Binding Signal (fold over 6E7 parental antibody) does the source give for B1 here?
Answer: 3.57 fold

Question: B2 was tested. Which Binding Signal (fold over 6E7 parental antibody) did it give?
Answer: 5.5 fold

Question: For B3, which Binding Signal (fold over 6E7 parental antibody) is on record?
Answer: 3.08 fold

Question: For B4, which Binding Signal (fold over 6E7 parental antibody) is on record?
Answer: 1.53 fold

Each binder was assayed against T1, human TREM2 (human) (assay: 2nd screen, 10 nM Ab).

Question: How did the Binding Signal (fold over 6E7 parental antibody) turn out when B1 was run?
Answer: 3.47 fold

Question: B2 was tested. Which Binding Signal (fold over 6E7 parental antibody) did it give?
Answer: 5.69 fold

Question: For B3, which Binding Signal (fold over 6E7 parental antibody) is on record?
Answer: 3.61 fold

Question: How did the Binding Signal (fold over 6E7 parental antibody) turn out when B4 was run?
Answer: 1.67 fold

Each binder was assayed against T1, human TREM2 (human) (assay: 2nd screen, 2 nM Ab).

Question: Which Binding Signal (fold over 6E7 parental antibody) does the source give for B1 here?
Answer: 2.83 fold

Question: With B2 as the binder, how does the Binding Signal (fold over 6E7 parental antibody) read?
Answer: 5.67 fold

Question: How did the Binding Signal (fold over 6E7 parental antibody) turn out when B3 was run?
Answer: 2.63 fold

Question: For B4, which Binding Signal (fold over 6E7 parental antibody) is on record?
Answer: 0.84 fold
